Substrate in the data set: CC(=O)OC[C@H](N)C(=O)O
The data set is described as follows: purified protein. The conditions noted are these: 15 mM Na2S, MOPS, 37 °C, no glycerol.

B1: SaCysK (Staphylococcus aureus subsp. aureus N315) (protein)
chain: MAQKPVDNITQIIGGTPVVKLRNVVDDNAADVYVKLEYQNPGGSVKDRIALAMIEKAEREGKIKPGDTIVEPTSGNTGIGLAFVCAAKGYKAVFTMPETMSQERRNLLKAYGAELVLTPGSEAMKGAIKKAKELKEEHGYFEPQQFENPANPEVHELTTGPELLQQFEGKTIDAFLAGVGTGGTLSGVGKVLKKEYPNIEIVAIEPEASPVLSGGEPGPHKLQGLGAGFIPGTLNTEIYDSIIKVGNDTAMEMSRRVAKEEGILAGISSGAAIYAAIQKAKELGKGKTVVTVLPSNGERYLSTPLYSFDD
For the protein B1, the Km was determined as 1.378 ± 0.592 mM.
